Drawing on PMC101404, this text covers Km for one protein.

Substrate in this series: NCC(N)C(=O)O
Kind of series: purified protein. It counts as biochemical, Salmonella enterica. As to conditions: potassium phosphate pH 8.0, 28 °C, PLP, NADH, LDH coupling.

B1: Diamino propionic acid (DAP) ammonia lyase (Salmonella enterica subsp. enterica serovar Typhimurium str. LT2) (protein)
chain: MHELIKYQFNTRRKKYGTGAALSLLNGNVGHEVLAFHKKLPNYAVTPLHNLAHLSQRLGLGSIHIKDESWRFGLNAFKGLGGSYAVGKYLADKLQCDINSLSFAALNTPEIKEKIKDCVFVTATDGNHGRGVAWAAEQLGLKAVVYMPKGSSLIRAENIRHHGAECTITDLNYDDAVRLAHRMAQTKGWVLLQDTAWTGYEEIPTWIMQGYMTLAVEAYEQLAETNSPLPTHLILQAGVGSFAGSVMGYFVEKMQENIPNIIVVEPHQANCLYQSAVMDDGQPHCVTGDMATIMAGLACGEPNIISWPIIRDNTSCFISADDCLAAKGMRISAAPRPGTDTPFISGESGAIGVGLLYELMNNMHYQDLANRLQLDASAHVLLISTEGDTSPDIYEDIVWNGRSA
For orientation: Km means the substrate concentration at which the rate is half of its maximum. On to B1, for which the Michaelis constant (Km) amounted to 685 µM.
